From article PMC8872419

Biological target: mutated SMN1 protein with T274YfsX32, myc-tagged (exogenous) (human) (UniProt Q16637)
Assay: co-IP; lysate (1 mg) of HeLa cells 24 h after transfection, RIPA buffer without SDS; anti-myc-tag antibody on Dynabeads Protein A; washed three times; blots with anti-myc-tag and anti-SMN antibodies; band ratio End-SMN/Exo-SMN, in triplicate

What does the source list for “endogenous FL-SMN1 and/or FL-SMN2 protein (endogenous SMN protein) (from UniProt Q16637 1-294) (natural protein)”?
ratio of End-SMN to Exo-SMN: 0.02; ratio of End-SMN/Exo-SMN, percent of wild type: 4%
